Entries after “also recorded” stand apart in the source; their conditions may differ.
Assays:
EAE-induced mice = assay: Immunohistochemistry of spinal cord for CD3, B220, CD11b infiltrates; assay type: in vivo, mouse; conditions: EAE day 18; vs vehicle
Experimental: Spinal cords were isolated and post-fixed with 4% PFA overnight at 4° C., washed 3× with PBS and soaked in 30% sucrose in PBS for 48 h. Tissues were then embedded in Optimal Cutting Temperature (OCT) compound. Frozen sections of spinal cords were cut at 10-30 μm with a cryostat, mounted on gelatinized slides, dried for 2 h and stored at −80° C. Sections were then re-hydrated in PBS for 5 min and permeabilized with PBST (0.3% Triton X-100 in PBS) for 5 min. The tissues were then blocked (PBS, 0.3% Triton X-100, 3% FBS) for 1 h at room temperature and incubated with the following primary antibodies overnight at 4° C. in a humidified chamber: anti-CD3 (145-2C11, BioLegend); CD11b (M1/70, BioLegend); B220 (RA3-6B2, BioLegend), DAPI (MMS-435P, Sigma), Fibrinogen (D9542, Innovative Research).

[1] = system: blood brain barrier of mice; assay: BBB permeability, Texas red dye leakage by widefield imaging; assay type: in vivo, mouse; conditions: mice injected with RGMa plus the agent
Experimental: Mice were treated with RGMa (70 ug), RGMa (70 ug)+RGMc (70 ug), or Vehicle (1% BSA) 18 h prior to widefield imaging (100-300 ms exposure) prior to and following intravenous injection of Texas Red dye (0.5 mg) over time. […] (B) Quantification of the leakage of Texas Red dye (measured as the number of leakage sites/mm^2).
BBB integrity was assessed in mice treated with PBS (Vehicle), RGMa, RGMc, RGMa+ immunoglobulin domain of Neogenin (4Ig). Widefield imaging was then carried out under a Olympus microscope (BX6 1WI) prior to and following the injection of Texas red dye (100 uL, I.V., 5 mg/ml) using 100-300 ms exposure. Recording was performed from 0 min to 35 min following injection. Texas dye leakage was also assessed in RGMc knockout (KO) and wild type (WT) mice. The leakage of Texas-red dye was quantified by a blind experimenter measuring the number of leakage sites/mm^2. (A) Representative images of Texas red dye: PBS (Vehicle), RGMa, RGMa+RGMc and RGMa+4Ig (immunoglobulin domain of Neogenin). Quantification of the leakage of Texas Red dye in animals treated with (B) PBS (Vehicle), RGMa or RGMa+RGMc or in RGMc KO and WT mice or (C) PBS (Vehicle), RGMa, RGMa+RGMc or RGMa+4Ig.
Mice injected with BSA, RGMc, RGMa, or RGMa+RGMc. […] Leakage of Texas red dye was quantified by a blind experimenter measuring the number of leakage sites/mm^2. […]

rats subjected to MCAO = assay: MCAO, neurological deficit (Bederson test); assay type: in vivo, rat; conditions: tail-vein injection of 70 μg, 7 day period, vs PBS
Experimental: In a separate experiment, whether RGMc treatment, which prevents BBB disruption following stroke, could lead to functional recovery (FIG. 25) was studied. Rats were subjected to MCAO and treated with either tail-vein injection of 70 μg of RGMc or control (PBS).

B1: sRGMc: truncated form of RGMc with the GPI anchor sequence removed, released as a soluble protein (SEQ ID NOs: 1 and 3) (protein, listed as Homo sapiens)
chain: CKILRCNAEYVSSTLSLRGGGSSGALRGGGGGGRGGGVGSGGLCRALRSYALCTRRTARTCRGDLAFHSAVHGIEDLMIQHNCSRQGPTAPPPPRGPALPGAGSGLPAPDPCDYEGRFSRLHGRPPGFLHCASFGDPHVRSFHHHFHTCRVQGAWPLLDNDFLFVQATSSPMALGANATATRKLTIIFKNMQECIDQKVYQAEVDNLPVAFEDGSINGGDRPGGSSLSIQTANPGNHVEIQAAYIGTTIIIRQTAGQLSFSIKVAEDVAMAFSAEQDLQLCVGGCPPSQRLSRSERNRRGAITIDTARRLCKEGLPVEDAYFHSCVFDVLISGDPNFTVAAQAALEDARAFLPDLEKLH
infiltration of B220+ cells into cervical spinal cords (EAE-induced mice): significantly reduced | infiltration of CD3+ cells into cervical spinal cords (EAE-induced mice): significantly reduced | infiltration of Cd11b+ cells into cervical spinal cords (EAE-induced mice): significantly reduced | RGMa-induced disruption of BBB integrity (Texas Red dye leakage) [1]: suppressed; also recorded: ameliorated | functional scores (Bederson test) (rats subjected to MCAO): significant (*p<0.05) improvement of functional scores
